This note sets out measurements from patent publication US20260098858A1 (NAVROGEN, published 2026).

The chains are these.
B1: soluble human ICAM-1/CD54 (receptor)
chain: QTSVSPSKVILPRGGSVLVTCSTSCDQPKLLGIETPLPKKELLLPGNNRKVYELSNVQEDSQPMCYSNCPDGQSTAKTFLTVYWTPERVELAPLPSWQPVGKNLTLRCQVEGGAPRANLTVVLLRGEKELKREPAVGEPAEVTTTVLVRRDHHGANFSCRTELDLRPQGLELFENTSAPYQLQTFVLPATPPQLVSPRVLEVDTQGTVVCSLDGLFPVSEAQVHLALGDQRLNPTVTYGNDSFSAKASVSVTAEDEGTQRLTCAVILGNQSQETLQTVTIYSFPAPNVILTKPEVSEGTEVTVKCEAHPRAKVTLNGVPAQPLGPRAQLLLKATPEDNGRSFSCSATLEVAGQLIHKNQTRELRVLYGPRLDERDCPGNWTWPENSQQTPMCQAWGNPLPELKCLKDGTFPLPIGESVTVTRDLEGTYLCRARSTQGEVTRKVTVNVLSPRYE
notes: also called sICAM-1; SICAM-1
B2: secreted recombinant monomeric heavy chain CH2 domain (other, human, UniProt P01857 114-223, looked up)
chain: APELLGGPSVFLFPPKPKDTLMISRTPEVTCVVVDVSHEDPEVKFNWYVDGVEVHNAKTKPREEQYNSTYRVVSVLTVLHQDWLNGKEYKCKVSNKALPAPIEKTISKAK
notes: domain: CH2

The target of one assay is T1, human serum albumin (human, UniProt P02768 25-609).
T1 construct: also called HSA
In words: ELISA: immobilized control protein, biotinylated sICAM-1 probe (FIG. 1B).

Assay [1] addresses B1. In words: ELISA: immobilized monomeric CH2 domain, biotinylated sICAM-1 probe (FIG. 4B). On the technique in general: An ELISA detects its analyte on a solid surface through an enzyme-linked reagent.

With B1, the binding result with human serum albumin is “no binding (tested: 5 µg/mL biotinylated sICAM-1)”.

As to B2, the binding result in assay [1] is given as “no binding (tested: 0.5 µg/mL biotinylated sICAM-1)”.
